T1: PUF4 RNA-binding domain (Saccharomyces cerevisiae, UniProt P25339 537-888)
T1 sequence: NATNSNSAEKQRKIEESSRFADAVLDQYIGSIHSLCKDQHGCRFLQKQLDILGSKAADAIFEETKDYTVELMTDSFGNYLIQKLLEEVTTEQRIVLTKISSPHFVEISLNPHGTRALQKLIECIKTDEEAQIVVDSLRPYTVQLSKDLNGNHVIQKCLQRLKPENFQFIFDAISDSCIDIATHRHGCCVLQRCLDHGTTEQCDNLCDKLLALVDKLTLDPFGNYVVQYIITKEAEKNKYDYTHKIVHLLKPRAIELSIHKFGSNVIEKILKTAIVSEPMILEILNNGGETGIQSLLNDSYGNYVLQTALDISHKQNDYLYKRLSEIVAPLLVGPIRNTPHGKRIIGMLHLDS


Molecular target: T1, PUF4 RNA-binding domain
Assay: Mg; RNA-MaP; 20 mM Na-HEPES pH 7.4, 30 mM KOAc, 0.75 mM MgCl2, 0.1% Tween-20, 5% glycerol, 0.1 mg/mL BSA, 2 mM DTT; 25 C; 0.0125-409.6 nM protein
Settings: tags: N-His6-TEV cleaved; C-SNAP kept, Cy3B-labelled; label: tethered on chip by stalled RNA polymerase

Binder | Kd
Id_ii_S2_P5E.3_K5.2_C5.2_[C-2T]_H5.2_A5.1_F5.1_T5.2_[T11C]_[A12G] (ssRNA) RNA: UUUGAUUAAUAUGAUAUCGUUCUUUCUUUUAUAUUAUUACGUUCUUUCUCGAUAUCAUAUUAAUCUUU | 152 nM
Id_ii_S2_P5E.3_K5.2_C5.2_[C-2A]_[T-1C]_H5.2_A5.1_F5.1_T5.2_[T11A]_[A12C] (ssRNA) RNA: UUUGAUUAAUAUGAUAUCGUUCUUUCUACUAUAUUAUUAACUUCUUUCUCGAUAUCAUAUUAAUCUUU | 102 nM
Id_ii_S2_P5E.3_K5.2_C5.2_[C-2A]_[T-1C]_H5.2_A5.1_F5.1_T5.2_[T11A]_[A12T] (ssRNA) RNA: UUUGAUUAAUAUGAUAUCGUUCUUUCUACUAUAUUAUUAAUUUCUUUCUCGAUAUCAUAUUAAUCUUU | 207 nM
Id_ii_S2_P5E.3_K5.2_C5.2_[C-2A]_H5.2_A5.1_F5.1_T5.2_[T11G]_[A12C] (ssRNA) RNA: UUUGAUUAAUAUGAUAUCGUUCUUUCUAUUAUAUUAUUAGCUUCUUUCUCGAUAUCAUAUUAAUCUUU | 762 nM
Id_ii_S2_P5E.3_K5.2_C5.2_[C-2A]_[T-1C]_H5.2_A5.1_F5.1_T5.2_[T11C]_[A12T] (ssRNA) RNA: UUUGAUUAAUAUGAUAUCGUUCUUUCUACUAUAUUAUUACUUUCUUUCUCGAUAUCAUAUUAAUCUUU | 98.6 nM
Id_ii_S2_P5E.3_K5.2_C5.2_[C-2A]_H5.2_A5.1_F5.1_T5.2_[T11C]_[A12C] (ssRNA) RNA: UUUGAUUAAUAUGAUAUCGUUCUUUCUAUUAUAUUAUUACCUUCUUUCUCGAUAUCAUAUUAAUCUUU | 142 nM
Id_ii_S2_P5E.3_K5.2_C5.2_[C-2A]_[T-1A]_H5.2_A5.1_F5.1_T5.2_[T11C]_[A12G] (ssRNA) RNA: UUUGAUUAAUAUGAUAUCGUUCUUUCUAAUAUAUUAUUACGUUCUUUCUCGAUAUCAUAUUAAUCUUU | > 2300 nM
Id_ii_S2_P5E.3_K5.2_C5.2_[C-2A]_[T-1A]_H5.2_A5.1_F5.1_T5.2_[T11C]_[A12C] (ssRNA) RNA: UUUGAUUAAUAUGAUAUCGUUCUUUCUAAUAUAUUAUUACCUUCUUUCUCGAUAUCAUAUUAAUCUUU | 504 nM
Id_ii_S2_P5E.3_K5.2_C5.2_[C-2T]_H5.2_A5.1_F5.1_T5.2_[T11C]_[A12C] (ssRNA) RNA: UUUGAUUAAUAUGAUAUCGUUCUUUCUUUUAUAUUAUUACCUUCUUUCUCGAUAUCAUAUUAAUCUUU | 66.4 nM
Id_ii_S2_P5E.3_K5.2_C5.2_[C-2A]_H5.2_A5.1_F5.1_T5.2_[T11C]_[A12G] (ssRNA) RNA: UUUGAUUAAUAUGAUAUCGUUCUUUCUAUUAUAUUAUUACGUUCUUUCUCGAUAUCAUAUUAAUCUUU | 229 nM
Id_ii_S2_P5E.3_K5.2_C5.2_[C-2T]_H5.2_A5.1_F5.1_T5.2_[A12C] (ssRNA) RNA: UUUGAUUAAUAUGAUAUCGUUCUUUCUUUUAUAUUAUUAUCUUCUUUCUCGAUAUCAUAUUAAUCUUU | 156 nM
Id_ii_S2_P5E.3_K5.2_C5.2_[C-2A]_[T-1A]_H5.2_A5.1_F5.1_T5.2_[T11C] (ssRNA) RNA: UUUGAUUAAUAUGAUAUCGUUCUUUCUAAUAUAUUAUUACAUUCUUUCUCGAUAUCAUAUUAAUCUUU | 672 nM
Id_ii_S2_P5E.3_K5.2_C5.2_[C-2A]_[T-1C]_H5.2_A5.1_F5.1_T5.2_[T11C] (ssRNA) RNA: UUUGAUUAAUAUGAUAUCGUUCUUUCUACUAUAUUAUUACAUUCUUUCUCGAUAUCAUAUUAAUCUUU | 162 nM
Id_ii_S2_P5E.3_K5.2_C5.2_[C-2T]_H5.2_A5.1_F5.1_T5.2_[T11C] (ssRNA) RNA: UUUGAUUAAUAUGAUAUCGUUCUUUCUUUUAUAUUAUUACAUUCUUUCUCGAUAUCAUAUUAAUCUUU | 131 nM
Id_ii_S2_P5E.3_K5.2_C5.2_[C-2A]_[T-1C]_H5.2_A5.1_F5.1_T5.2_[A12T] (ssRNA) RNA: UUUGAUUAAUAUGAUAUCGUUCUUUCUACUAUAUUAUUAUUUUCUUUCUCGAUAUCAUAUUAAUCUUU | 174 nM
Id_ii_S2_P5E.3_K5.2_C5.2_[C-2T]_H5.2_A5.1_F5.1_T5.2_[T11A]_[A12T] (ssRNA) RNA: UUUGAUUAAUAUGAUAUCGUUCUUUCUUUUAUAUUAUUAAUUUCUUUCUCGAUAUCAUAUUAAUCUUU | 374 nM
Id_ii_S2_P5E.3_K5.2_C5.2_[C-2A]_[T-1C]_H5.2_A5.1_F5.1_T5.2_[T11A] (ssRNA) RNA: UUUGAUUAAUAUGAUAUCGUUCUUUCUACUAUAUUAUUAAAUUCUUUCUCGAUAUCAUAUUAAUCUUU | 319 nM
Id_ii_S2_P5E.3_K5.2_C5.2_[C-2T]_H5.2_A5.1_F5.1_T5.2_[A12T] (ssRNA) RNA: UUUGAUUAAUAUGAUAUCGUUCUUUCUUUUAUAUUAUUAUUUUCUUUCUCGAUAUCAUAUUAAUCUUU | 130 nM
UCUCUUUGUAUUCCUAUCUCUU (ssRNA) [Ib_S1_P5E.1_K5.1_C5.1_H5.1_A5.1_[A7C]_F5.1_[T8C]_T5.1] | 17.5 nM
